Results as given in PMC10197177, “Development of high affinity broadly reactive aptamers for spike protein of multiple SARS-CoV-2 variants†”.

Target: Spike protein, wild-type (Wuhan) (SARS-CoV-2 (wild-type, original Wuhan …, UniProt P0DTC2 14-1213))
Assay: ELONA; Tris buffer; […], pH 7.4, room temperature, spike immobilized; […], pH 7.4 ([…]
Details: protein: recombinant; chain copies: 3; label: 3' biotin

| Binder | Kd [nM] |
| --- | --- |
| K1 (truncated working aptamer) (ssDNA) DNA: AATGGATCCACATCTACGAGCTCGAACGCCCGGAGGAGACGGGGGCAGGGCGTGTTCACTGCAGACTTGACGAAGCT | 0.066 ± 0.004 |
| Oligo14 (ssDNA) DNA: CCACATCTACGAGCTCGAACGCCCGGAGGAGACGGGGGCAGGGCGTGTTCACTGCAGACTTGA | 5.29 ± 0.95 |
| ACGAGCTCGAACGCCCGGAGGAGACGGGGGCAGGGCGTGTTCACTGC (ssDNA) [Oligo30] | 245 ± 8 |
| M40 (truncated working aptamer) (ssDNA) DNA: ATCTACGAATTCTCCGCCAAGATAGAGGGTGGGCCGCGGAGAATTCACTGC | 0.155 ± 0.026 |
